Test results taken from patent US20150376252A1 (VAN ANDEL RESEARCH INSTITUTE, published 2015).
Read-outs that look alike come from different tables or passages of the source.

T1: Fz4-YFP-C (full-length human Fz4 with YFP residues 159-239 at the C-terminus) (human, UniProt Q9ULV1 37-537)
T1 construct: whole, on cells; also called YFP-C-tagged Fz4; not shown: YFP-C, residues 159-239 of YFP
T1 sequence (looked up): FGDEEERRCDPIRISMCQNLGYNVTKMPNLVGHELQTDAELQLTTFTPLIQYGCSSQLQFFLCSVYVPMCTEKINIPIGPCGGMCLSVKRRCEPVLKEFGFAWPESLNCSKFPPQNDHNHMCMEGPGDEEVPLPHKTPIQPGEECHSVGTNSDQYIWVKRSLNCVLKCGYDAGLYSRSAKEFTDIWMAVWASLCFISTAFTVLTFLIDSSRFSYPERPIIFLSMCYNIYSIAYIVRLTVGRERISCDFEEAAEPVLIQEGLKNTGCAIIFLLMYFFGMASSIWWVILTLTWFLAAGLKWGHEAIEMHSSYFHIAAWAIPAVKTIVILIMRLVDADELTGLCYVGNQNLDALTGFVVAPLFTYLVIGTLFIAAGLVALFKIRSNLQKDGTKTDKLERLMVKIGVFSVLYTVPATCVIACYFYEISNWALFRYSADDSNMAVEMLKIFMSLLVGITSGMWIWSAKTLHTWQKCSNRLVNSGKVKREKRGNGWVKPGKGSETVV

T2: Fz4-YFP (full-length human Fz4 with yellow fluorescent protein at the C-terminus) (human, UniProt Q9ULV1 37-537)
T2 construct: whole, on cells; also called YFP-tagged Fz4; not shown: YFP
T2 sequence (looked up): T1 sequence (looked up)

T3: Tspan12-YFP (human Tspan12 with YFP at the C-terminus) (human, UniProt O95859 1-305)
T3 construct: whole, on cells; also called YFP-tagged Tspan12; not shown: YFP
T3 sequence (looked up): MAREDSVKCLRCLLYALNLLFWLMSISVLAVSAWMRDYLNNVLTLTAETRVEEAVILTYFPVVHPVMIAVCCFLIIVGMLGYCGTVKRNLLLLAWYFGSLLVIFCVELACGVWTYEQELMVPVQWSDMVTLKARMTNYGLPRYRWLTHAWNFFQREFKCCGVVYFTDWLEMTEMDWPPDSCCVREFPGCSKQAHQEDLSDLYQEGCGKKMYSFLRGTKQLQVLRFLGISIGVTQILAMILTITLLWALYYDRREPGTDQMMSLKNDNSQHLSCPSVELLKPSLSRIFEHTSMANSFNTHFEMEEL

T4: Fz4-Rlu (full-length human Fz4 with Renilla luciferase at the C-terminus) (human, UniProt Q9ULV1 37-537)
T4 construct: whole, on cells; also called Rlu-tagged Fz4; not shown: Renilla luciferase (Rlu)
T4 sequence (looked up): T1 sequence (looked up)

B1: Lrp6 BP3-4 (Lrp6 extracellular beta-propeller domains 3 and 4) (receptor)
chain: VPEAFLLFSRRADIRRISLETNNNNVAIPLTGVKEASALDFDVTDNRIYWTDISLKTISRAFMNGSALEHVVEFGLDYPEGMAVDWLGKNLYWADTGTNRIEVSKLDGQHRQVLVWKDLDSPRALALDPAEGFMYWTEWGGKPKIDRAAMDGSERTTLVPNVGRANGLTIDYAKRRLYWTDLDTNLIESSNMLGLNREVIADDLPHPFGLTQYQDYIYWTDWSRRSIERANKTSGQNRTIIQGHLDYVMDILVFHSSRQSGWNECASSNGHCSHLCLAVPVGGFVCGCPAHYSLNADNRTCSAPTTFLLFSQKSAINRMVIDEQQSPDIILPIHSLRNVRAIDYDPLDKQLYWIDSRQNMIRKAQEDGSQGFTVVVSSVPSQNLEIQPYDLSIDIYSRYIYWTCEATNVINVTRLDGRSVGVVLKGEQDRPRAVVVNPEKGYMYFTNLQERSPKIERAALDGTEREVLFFSGLSKPIALALDSRLGKLFWADSDLRRIESSDLSGANRIVLEDSNILQPVGLTVFENWLYWIDKQQQMIEKIDMTGREGRTKVQARIAQLSDIHAVKELNLQEYRQHPCAQDNGGCSHICLVKGDGTTRCSCPMHLVLLQDELSCG
notes: domain: β-propeller domains 3-4 (BP3-4); not shown: His8 tag (His8 tagged Lrp6 ECD proteins)
B2: Tspan12-Rlu (human Tspan12 with Renilla luciferase at the C-terminus) (other, UniProt O95859 1-305, looked up)
chain: T3 sequence (looked up)
notes: whole, on cells; also called Rlu-tagged Tspan12; not shown: Renilla luciferase (Rlu)
B3: Soluble-Rlu (enzyme)
chain: MTSKVYDPEQRKRMITGPQWWARCKQMNVLDSFINYYDSEKHAENAVIFLHGNAASSYLWRHVVPHIEPVARCIIPDLIGMGKSGKSGNGSYRLLDHYKYLTAWFELLNLPKKIIFVGHDWGACLAFHYSYEHQDKIKAIVHAESVVDVIESWDEWPDIEEDIALIKSEEGEKMVLENNFFVETMLPSKIMRKLEPEEFAAYLEPFKEKGEVRRPTLSWPREIPLVKGGKPDVVQIVRNYNAYLRASDDLPKMFIESDPGFFSNAIVEGAKKFPNTEFVKVKGLHFSQEDAPDEMGKYIKSFVERVLKNEQ
B4: Fz8-FcH6 (Frizzled 8 CRD, residues 28-155, fused to Fc and His6 tags) (Fc fusion)
chain: ASAKELACQEITVPLCKGIGYNYTYMPNQFNHDTQDEAGLEVHQFWPLVEIQCSPDLKFFLCSMYTPICLEDYKKPLPPCRSVCERAKAGCAPLMRQYGFAWPDRMRCDRLPEQGNPDTLCMDYNRTD
notes: range 28-155; also called Fz8 CRD; not shown: Fc tag of the pHL-IgL-FcH6 vector; His6 tag (six histidines)
B5: Fz4-YFP-N (full-length human Fz4 with YFP residues 1-158 at the C-terminus) (receptor, UniProt Q9ULV1 37-537, looked up)
chain: T1 sequence (looked up)
notes: whole, on cells; also called YFP-N-tagged Fz4; not shown: YFP-N, residues 1-158 of YFP
B6: His8-tagged Lrp6 BP1-2 (Lrp6 extracellular beta-propeller domains 1 and 2) (receptor, UniProt O75581 20-631, looked up)
chain: APLLLYANRRDLRLVDATNGKENATIVVGGLEDAAAVDFVFSHGLIYWSDVSEEAIKRTEFNKTESVQNVVVSGLLSPDGLACDWLGEKLYWTDSETNRIEVSNLDGSLRKVLFWQELDQPRAIALDPSSGFMYWTDWGEVPKIERAGMDGSSRFIIINSEIYWPNGLTLDYEEQKLYWADAKLNFIHKSNLDGTNRQAVVKGSLPHPFALTLFEDILYWTDWSTHSILACNKYTGEGLREIHSDIFSPMDIHAFSQQRQPNATNPCGIDNGGCSHLCLMSPVKPFYQCACPTGVKLLENGKTCKDGATELLLLARRTDLRRISLDTPDFTDIVLQLEDIRHAIAIDYDPVEGYIYWTDDEVRAIRRSFIDGSGSQFVVTAQIAHPDGIAVDWVARNLYWTDTGTDRIEVTRLNGTMRKILISEDLEEPRAIVLDPMVGYMYWTDWGEIPKIERAALDGSDRVVLVNTSLGWPNGLALDYDEGKIYWGDAKTDKIEVMNTDGTGRRVLVEDKIPHIFGFTLLGDYVYWTDWQRRSIERVHKRSAEREVIIDQLPDLMGLKATNVHRVIGSNPCAEENGGCSHLCLYRPQGLRCACPIGFELISDMKTCIVPE
notes: domain: β-propeller domains 1-2 (BP1-2); for the separate Fc constructs BP1 is 20-325 and BP2 is 325-631; also called H8-Lrp6 BP1-2; not shown: His8 tag (eight histidines)
B7: Fz4-FcH6 (human Frizzled 4 CRD, residues 40-164, fused to Fc and His6 tags) (Fc fusion)
chain: EEERRCDPIRISMCQNLGYNVTKMPNLVGHELQTDAELQLTTFTPLIQYGCSSQLQFFLCSVYVPMCTEKINIPIGPCGGMCLSVKRRCEPVLKEFGFAWPESLNCSKFPPQNDHNHMCMEGPGD
notes: range 40-164; also called Fz4 CRD-FcH6; Fz4-FcH6 dimer; not shown: Fc tag of the pHL-IgL-FcH6 vector; His6 tag (six histidines)
B8: CCK2R-YFP (receptor, UniProt P32239 1-447, looked up)
chain: MELLKLNRSVQGTGPGPGASLCRPGAPLLNSSSVGNLSCEPPRIRGAGTRELELAIRITLYAVIFLMSVGGNMLIIVVLGLSRRLRTVTNAFLLSLAVSDLLLAVACMPFTLLPNLMGTFIFGTVICKAVSYLMGVSVSVSTLSLVAIALERYSAICRPLQARVWQTRSHAARVIVATWLLSGLLMVPYPVYTVVQPVGPRVLQCVHRWPSARVRQTWSVLLLLLLFFIPGVVMAVAYGLISRELYLGLRFDGDSDSDSQSRVRNQGGLPGAVHQNGRCRPETGAVGEDSDGCYVQLPRSRPALELTALTAPGPGSGSRPTQAKLLAKKRVVRMLLVIVVLFFLCWLPVYSANTWRAFDGPGAHRALSGAPISFIHLLSYASACVNPLVYCFMHRRFRQACLETCARCCPRPPRARPRALPDEDPPTPSIASLSRLSYTTISTLGPG
notes: whole, on cells; Negative control of the saturation BRET; also called CCK2R-YFP, an unrelated seven-transmembrane receptor; not shown: YFP

Tests used:
biotinylated MBP-Norrin [1] = target: biotinylated MBP-Norrin (human); test: AlphaScreen luminescence proximity assay
[2] = target: T5, MBP-Norrin (maltose binding protein fused to the N-terminus of human Norrin residues 25-133, wild-type) (human); test: three-step biolayer interferometry: Lrp6 BP3-4 on MBP-Norrin pre-bound to Fz4-FcH6 sensors
[3] = target: B5; test: split-YFP BRET assay (FIG. 6D)
[4] = target: T1, Fz4-YFP-C (full-length human Fz4 with …); test: split-YFP BRET assay (FIG. 6D)
[5] = target: T2, Fz4-YFP (full-length human Fz4 with …); test: static BRET in transfected COS-1 cells
[6] = target: T2, Fz4-YFP (full-length human Fz4 with …); test: static BRET in transfected COS-1 cells; remark: listed apart in the source
[7] = target: T3, Tspan12-YFP (human Tspan12 with YFP at …); test: static BRET in transfected COS-1 cells
biotinylated MBP-Norrin [8] = target: biotinylated MBP-Norrin (human); test: AlphaScreen luminescence proximity assay; remark: listed apart in the source
[9] = target: T5, MBP-Norrin (maltose binding protein …); test: biolayer interferometry, Fz8-FcH6 on the sensor, MBP-Norrin in solution
[10] = target: T1, Fz4-YFP-C (full-length human Fz4 with …); test: split-YFP complementation: fluorescence microscopy, emission spectrum, anisotropy
[11] = target: T5, MBP-Norrin (maltose binding protein …); test: calculated from the homologous competition assay (FIG. 4B, 4C); Kd derived from the same homologous competition
MBP-Norrin K54E/R109E = target: T6, MBP-Norrin K54E/R109E (human); test: AlphaScreen competition: unlabeled mutant MBP-Norrin against b-DKK1 peptide on H8-Lrp6 BP1-2
T6 construct: MBP tagged mutant purified like the wild-type; also called K54E/R109E double mutant

[12] = target: T5, MBP-Norrin (maltose binding protein …); test: biolayer interferometry; binding avidity of dimer to dimer (FIG. 8A)
biotinylated MBP-Norrin [13] = target: biotinylated MBP-Norrin (human); test: AlphaScreen saturation binding curve; binding avidity of dimer to dimer (FIG. 1E)
[14] = target: T4, Fz4-Rlu (full-length human Fz4 with …); test: saturation BRET in transfected COS-1 cells

## B1
Biotinylated MBP-Norrin [1]
  binding result: no binding
[2]
  binding result: no binding (tested: 40 µg/ml)

## B2
[3]
  binding result: binds
[4]
  binding result: binds
[5]
  binding result: binds

## B3
[6]
  binding result: no binding
[7]
  binding result: no binding

## B4
Biotinylated MBP-Norrin [8]
  binding result: no binding
[9]
  binding result: no binding

## B5
[10]
  binding result: binds

## B6
[11]
  Kd: ~450 nM
MBP-Norrin K54E/R109E
  binding result: no binding (tested: 1.805 µM)

## B7
[12]
  Kd: ~5 nM
Biotinylated MBP-Norrin [13]
  Kd: ~11 nM

## B8
[14]
  binding result: no binding (tested: YFP/Rlu about 33 (ratio))
